{"source": "patent US9744212B2", "about": "“Galectin-3C combination therapy for human cancer” (Texas Tech University System, priority 2011, dated 2017)", "key": {"VEGF": {"test_system": "VEGF", "test": "ELISA of VEGF in U266 cell-conditioned medium", "assay_type": "cell-based, human", "settings": "48-hour culture with 10 μg/mL Gal-3C, 5 nM Bor or both", "protocol": "ELISA of VEGF and bFGF Levels. The levels of VEGF and bFGF were measured by direct ELISA as follows. Flat-bottom 96-well polycarbonate plates were coated at 4° C. with 50 μL/well cell culture supernatants diluted 1:25 in carbonate coating buffer (0.1 M NaHCO3, […]) at 4° C. overnight. Standard curves were obtained with purified recombinant human VEGF and bFGF (both from R&D Systems) serially diluted in coating buffer (10-fold serial dilutions from 1,000 to 0 ng/mL). After removing diluted supernatants or standards, and blocking with PBS supplemented with 1% W/V BSA for 1 hour at room temperature, plates were incubated for 1 hour at room temperature with mouse anti-human VEGF or rabbit anti-human bFGF primary antibodies (2 μg/mL in PBS, 50 μL/well Abeam, Mass., USA). Then, plates were washed twice with PBS with 0.025% V/V Tween-20 (300 μL/well) and incubated at room temperature with anti-mouse or anti-rabbit HRP-labeled secondary antibodies (0.2 μg/mL in PBS, 50 μL/well Abeam, Mass., USA) for 1 hour. The plates were washed thrice with PBS containing 0.025% V/V Tween-20 (300 μL/well), the TMB colorimetric substrate (Thermo Fisher Scientific, Waltham, Mass., USA) was added, and after 5 minutes the absorbance was measured (0.1 s) at 450 nm on a Victor 2 multimodal microplate reader (PerkinElmer, Billerica, Mass., USA). All samples were run in triplicates. […]"}, "AKT/IKK pathway": {"test_system": "AKT/IKK pathway", "test": "Western blot of proteins in the NF-κB AKT/IKK pathway", "assay_type": "cell-based", "settings": "U266 and primary human MM cells; Gal-3C 10 μg/ml", "description": "EXAMPLE 4 indicates Gal-3C impairs NF-kB activation induced by Bonin U266 cells. Recently, it has been shown that the mechanism of action of Boris more complex than originally thought and can be differ depending on the cell type. […] This effect potentially reduces the therapeutic effect of Bonin MM, because NF-kB activation in plasma cells is associated with anti-apoptotic pathways (91). […] Comparison of NFkB expression by Western blot. […] Equal amounts of lysates of human primary MM and U266 cells and media were fractionated by SDS-PAGE and transferred to nitrocellulose membranes. Primary antibodies were visualized with HRP-coupled goat anti-rabbit or anti-mouse IgGs using an ATK/IKK kit (Cell Signaling Technology, Danvers, Mass.).\nUpon IKK-mediated phosphorylation, IKBα dissociates from the NF-kB complex (p50 and p65 proteins). Free NF-kB is then phosphorylated on serine 529 of the p65 subunit and enters the nucleus where it regulates gene transcription."}, "HUVEC": {"test_system": "HUVEC", "test": "Vascular endothelial cell viability assay", "assay_type": "cell-based, human", "settings": "48 h", "protocol": "FIGS. 4A and 4B are graphs of the data from the vascular endothelial cell viability assay. […] The graphs show mean values and error bars represent 95% C.I. **=ANOVA Tukey's post test p<O.Ol. n.s.=not significant. […] Viability was measured as described for the U266 cells. […] Results obtained from the HUVEC viability studies that were run in triplicate are depicted in FIGS. 4A-B, and are presented as a percentage of control (untreated) cells.\n(§1) EXAMPLE 3 illustrates Gal-3C inhibits proliferation of MM cells. Cell Proliferation (Viability) Assays. Cell proliferation was assessed with a ViaLight Plus Cell Proliferation and Cytotoxicity BioAssay Kit (Lonza, Walkersville, Md., USA) according to the directions of the manufacturer. In brief, myeloma cells were seeded (8,000 per well) in 50 μL of RPMI-1640 with 10% heat-inactivated FBS (growth medium) in 96-well plates. HUVEC cells were seeded (10,000/well) in 50 μl EGM-2 medium in 96-well plates. Gal-3C (2× concentration) in 50 μL of growth medium was added to triplicate wells and the plate kept at the CO2 incubator at 37° C. for 48 hour. For the ViaLight assay, 50 μL of lysis buffer was added to each well, the plate was incubated for 10 minutes, after which 50 μL of cell lysate from each well was transferred to a solid white Lumitrac-200 plate and 50 μL of reconstituted AMR Plus was added. Luminescence was measured with a 1-s integrated setting in a Berthold luminometer after 2 minutes. With Alamar Blue, 10 μL of reagent was added per well and the plate kept in the CO2 incubator for 4 hours. Fluorescence intensity was measured at 590-nm on a Polarstar Galaxy (BMG Labtech, Cary, N.C.) microplate reader. The blank (growth media with 10 μl Alamar Blue) was subtracted from the raw fluorescence to obtain adjusted fluorescence readings. Triplicate data points were analyzed and the data shown are representative of 3 or more studies."}, "[1]": {"test_system": "MM cell lines (ARP-1, ARK-B, U266, 8226/Dox, MM-1S, MM-RL, NCI-H929, RMPI-8266)", "test": "Cell proliferation (viability) assays of MM cell lines", "assay_type": "cell-based, human", "settings": "all eight cell lines, at one or more concentrations (0.5, 1, 2 or 4 μg/ml); 48 hours; P<0.05; magnitude slight", "protocol": "as §1, with “With Alamar Blue, 10 μL of reagent was added per well and the plate kept in the CO2 incubator for 4 hours.” left out, “studies. […]” for “studies.”"}}, "data": [{"molecule": "Gal-3C: N-terminally truncated human galectin-3 consisting of 143 carboxy-terminal amino acid residues, SEQ ID NO: 1 (protein) GAPAGPLIVPYNLPLPGGVVPRMLITILGTVKPNANRIALDFQRGNDVAFHFNPRFNENNRRVIVCNTKLDNNWGREERQSVFPFESGKPFKIQVLVEPDHFKVAVNDAHLLQYNHRVKKLNEISKLGISGDIDITSASYTMI", "values": [{"measurement": "VEGF levels in U266 conditioned medium", "setting": "VEGF", "value": "significantly reduced"}, {"measurement": "P-p65, P-Akt, P-IKKβ and P-IKKα (activation of the AKT/IKK pathway)", "setting": "AKT/IKK pathway", "value": "inhibited"}, {"measurement": "effect on HUVEC viability", "setting": "HUVEC; at the concentration used in the chemotaxis and angiogenesis assays (Gal-3C 2 μg/ml, Bor 1 nM)", "value": "did not display significant effects"}, {"measurement": "effect on HUVEC viability", "setting": "HUVEC; at the highest concentrations", "value": "mild effect"}, {"measurement": "proliferation of MM cells", "setting": "[1]", "value": "significantly inhibited"}]}]}
